Source: the supplement of paper PMC10567573
± gives the standard deviation.

Assay: protein stability index of a GFP-peptide fusion (GPS, HEK-293T) (PSI 1-6); higher = more stable
Conditions: c terminus: a fixed tail appended
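Further: 24-mer peptide tiles fused after GFP, lentivirally expressed, FACS-sorted into six equal bins by GFP/DsRed ratio, decoded by Illumina sequencing, PSI is the read-weighted mean bin number.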

| Sequence | protein stability index (treatment: DMSO) | protein stability index (treatment: MLN4924 1 uM, 8 h) |
| --- | --- | --- |
| LPTDGSTGVELAPRSAEPGYLVTK [PCDHGA10] | 4.52 ± 0.17 | 4.66 ± 0.15 |
| RPLRSREFPQFEPQRYPACAQMLP [TRAF3IP2] | 3.07 ± 0.44 | 3.44 ± 0.15 |
| EHPNVVRLMDVCATSRTDREIKVT [CDK4] | 3.93 ± 0.36 | 4.14 ± 0.38 |
| GGRALVVRKVPPGYSIKVFDFERS [SMAD6] | 2.52 ± 0.33 | 2.37 ± 0.51 |
| FQGQKTELNNCISMLVAGNDRVQT [TRIM63] | 3.13 ± 0.15 | 3.41 ± 0.42 |
| PMLWNPSGTPKRYSLELGKAIKQK [C22orf31] | 3.59 ± 0.23 | 3.56 ± 0.14 |
| NLSYKQVKTWFQNQRMKSKRWQKN [NANOGP8] | 2.54 ± 0.23 | 2.57 ± 0.33 |
| NSEDIFLLLCLKVDNHFNLLTTSP [TRIM43] | 2.58 ± 0.33 | 2.31 ± 0.67 |
| SSTKPPKSRRKAALSSPRSRKNAT [INTS3] | 4.89 ± 0.19 | 5.04 ± 0.14 |
| MILLVNLFVLLSVVCVLLNLAGFI [FAM189A2] | 3.03 ± 0.34 | 3.14 ± 0.47 |
| ETDEDEEEGDEQQRLLNTPRRKKL [GMCL1] | 5.6 ± 0.3 | 5.63 ± 0.28 |
| EATQFLKQILDGVHYLHSKRIAHF [DAPK3] | 2.9 ± 0.44 | 2.92 ± 0.56 |
| GSAEKQAGEAHMAADGETNGSCEN [EHMT1] | 5.49 ± 0.37 | 5.6 ± 0.2 |
| GGYFKARLKFPIDYPYSPPAFRFL [CDC34] | 2.82 ± 0.33 | 2.58 ± 0.51 |
| DGDIPNIPAEENASTSTPSSTLVR [FAM189A2] | 5.47 ± 0.2 | 5.55 ± 0.15 |
| INPFTPDSLLLHSSGQCRRRKRTY [WEE1] | 3.62 ± 0.4 | 3.83 ± 0.41 |
| AGGSSSTPTPQALYPDLSCPEGLE [SPSB2] | 5.15 ± 0.31 | 5.21 ± 0.25 |
| ALAREFSCPFFETSAAYRYYIDDV [RIT1] | 2.29 ± 0.13 | 2.08 ± 0.12 |
| LLQTQHALGDAFADLSQKSPELQE [ARFIP2] | 4.7 ± 0.22 | 4.77 ± 0.21 |
| SAILQFPSTLGRCKAFSTCVSHLI [OR10K2] | 2.5 ± 0.55 | 2.59 ± 0.3 |
| AQSPGAVEEILDRENKRMADSLAS [BET1L] | 5.12 ± 0.14 | 5.35 ± 0.26 |
| LYVVGGQSNYDTKGKTAVDTVFRF [KLHL13] | 2.5 ± 0.2 | 1.98 ± 0.31 |
| IHQETVSKNGNGLKNTPRFKRRRV [PCMTD2] | 4.41 ± 0.27 | 4.63 ± 0.27 |

| Sequence | protein stability index (treatment: DMSO) | protein stability index (treatment: MLN4924 1 uM, 8 h) |
| --- | --- | --- |
| LVVQIDNAKLAADDFRTKYQTEQS [KRT33B] | 3.18 ± 0.19 | 3.36 ± 0.16 |
| NLEKQLICPICLEMFTKPVVILPC [TRIM55] | 2.41 ± 0.34 | 2.33 ± 0.22 |
| LRRVLDELTLSKTDLEMQIESLNE [KRT13] | 3.12 ± 0.098 | 2.98 ± 0.068 |
| TAAMRCMCPLYDPNRQLWIELAPL [GAN] | 2.22 ± 0.51 | 2.16 ± 0.55 |
| KWDAENAIQQMGGQWLGGRQIRTN [TIA1] | 3.51 ± 0.28 | 3.56 ± 0.3 |
| GSENRNHRLLNMARNNNDPGRLTE [RNF180] | 4.08 ± 0.22 | 4.26 ± 0.24 |
| LTYGEVRNSKASAYCLDQGAEDGD [GALNT9] | 5.37 ± 0.29 | 5.3 ± 0.29 |
| LIKEGGMPLLRDIIKMATARQETK [ZER1] | 2.69 ± 0.32 | 2.65 ± 0.38 |
| SHQCAHCEKTFNRKDHLKNHLQTH [PLAGL1] | 5.03 ± 0.15 | 5.04 ± 0.14 |
| LNYLVDPVTICCGHSFCRPCLCLS [TRIM43] | 2.26 ± 0.34 | 2.42 ± 0.23 |
| QELELVLMISENNFLFRNAASTLT [ANKRD40] | 2.91 ± 0.82 | 3.28 ± 0.74 |
| TVKFANNPSQKTGQALLTHLYQSS [ELAVL3] | 3.01 ± 0.22 | 3.03 ± 0.38 |
| PSLDSRQRLDYEREIQPTAILSLD [SPRY1] | 4.39 ± 0.16 | 4.53 ± 0.22 |
| DSHVSSCSEDWVGYQRKCYFISTV [CD69] | 2.46 ± 0.88 | 2.65 ± 0.6 |
| DPDECGSDYISEFRFAPNHTKELE [EPB41L3] | 2.91 ± 0.91 | 3.67 ± 0.79 |
| SSYFDSFQEAQIKRKARNEGRNRR [CDKL4] | 3.93 ± 0.76 | 4.96 ± 0.35 |
| KEAVQNERDRISTRRSSYEDSSLP [HNF4A] | 5.07 ± 0.31 | 5.14 ± 0.25 |
| HWALRVTPGLGVVAVLLLFLVVRE [SPNS1] | 2.83 ± 0.47 | 2.79 ± 0.59 |
| YLQIFATRRSCIDESQISAEEAED [FAM189A2] | 3.71 ± 0.14 | 3.92 ± 0.32 |
| LIYVVIDLPINVFKLLAGRWPFDH [EDNRA] | 2.27 ± 1 | 3.04 ± 0.23 |
| IRQVLQGLDYLHSKCKIIHTDIKP [SRPK2] | 2.35 ± 0.44 | 2.22 ± 0.23 |
| FLKNTEVSSMECEKNLYWICNKPY [CD69] | 2.32 ± 0.61 | 2.27 ± 0.21 |
| PFTVYQVRWLRPVHRQLGEANEEF [AUP1] | 2.43 ± 0.34 | 2.33 ± 0.32 |

| Sequence | protein stability index (treatment: DMSO) | protein stability index (treatment: MLN4924 1 uM, 8 h) |
| --- | --- | --- |
| EREKVTPLMVKGFRDAAEEGGTAV [SEPHS2] | 5.24 ± 0.18 | 5.12 ± 0.16 |
| KLFCIPVHGIRSVGTAAVNMCLVA [IMPA1] | 2.4 ± 0.8 | 2.26 ± 0.85 |
| CHCLKGFTLNPDKKTCRRINYCAL [MATN2] | 2.5 ± 0.24 | 2.14 ± 0.18 |
| GRLYVHPDSPATGAHWMRQLVSFQ [TBX5] | 2.32 ± 0.26 | 2.34 ± 0.2 |
| NNIKFKKSSILTRAGEQRKRSQSM [CLCN6] | 4.06 ± 0.41 | 4.39 ± 0.1 |
| LALRQGVEADINGLRRVLDELTLA [KRT15] | 2.51 ± 0.26 | 2.65 ± 0.4 |
| NGIHVCMVFEVLGHHLLKWIIKSN [SRPK2] | 3.01 ± 0.14 | 2.96 ± 0.29 |
| TSAAALSPMSAATLGGLNPSPSEV [SMTNL2] | 4.61 ± 0.21 | 4.62 ± 0.31 |
| VNVDNLLAAAVVQEHSNSVGGQDT [C18orf25] | 5.05 ± 0.21 | 4.92 ± 0.43 |
| PPPPPSPSSLGPLLPLQREPLYNW [BTBD1] | 3.78 ± 0.15 | 3.73 ± 0.25 |
| NGVTQKASAPTYPSLYSSYHQGCL [NANOGP8] | 2.75 ± 0.11 | 2.93 ± 0.34 |
| TAAGLMHTFNAHAATDITGFGILG [SEPHS2] | 2.43 ± 0.51 | 2.44 ± 0.074 |
| IVWNKKGKKVSNQRFEVIEFDDGS [PTPRD] | 3.31 ± 0.18 | 3.15 ± 0.062 |
| PISPSTEVGGSGIGTPPSVLKRQR [MYBL2] | 5.36 ± 0.24 | 4.97 ± 0.36 |
| AELQAELLHSQARLAELEAQVRKL [FBF1] | 4.29 ± 0.21 | 4.26 ± 0.092 |
| GLGNIWRFPYLCQKNGGGAYLVPY [SLC6A17] | 2.44 ± 0.43 | 2.54 ± 0.49 |
| RNEGVSSVLLGASNADQLMENIGA [KCNAB2] | 4.25 ± 0.09 | 4.42 ± 0.12 |
| EHPFLVNLWYSFQDEEDMFMVVDL [STK32A] | 2.9 ± 0.73 | 2.63 ± 0.58 |
| QRVGFGDDFDEDELMAELEELEQE [CHMP4C] | 5.33 ± 0.4 | 5.35 ± 0.23 |
| QRPVSRQVTCLRTQVLEDSEDSFC [TRAF3IP2] | 4.68 ± 0.19 | 4.53 ± 0.14 |
| DIFPELDDILYHVKGMQRIVNQWS [DLC1] | 2.42 ± 0.13 | 2.49 ± 0.12 |
| AYYRGAVGALLVYDIAKHLTYENV [RAB11A] | 3.11 ± 0.5 | 2.89 ± 0.59 |
| LLQRRKRENMSDGDTSATESGDEV [KMT2E] | 5.52 ± 0.17 | 5.32 ± 0.38 |

| Sequence | protein stability index (treatment: DMSO) | protein stability index (treatment: MLN4924 1 uM, 8 h) |
| --- | --- | --- |
| AEGTTGLAPAGQTSEESRPRLSQL [TNXB] | 5.66 ± 0.21 | 5.36 ± 0.25 |
| QVHRQGERRRELVRSQTLPRTSEA [SMTNL2] | 4.957 ± 0.024 | 4.98 ± 0.16 |
| MSLEGTEKASWLGEQPQFWSKTQV [ELF3] | 3.31 ± 0.42 | 3.33 ± 0.16 |
| AQQIRLHHFNSSHLEIDDMYTPAY [MYORG] | 2.86 ± 0.26 | 2.91 ± 0.21 |
| CCIVTSTYGWTANMERIMKAQALR [HSP90AB1] |  | 2.42 ± 0.4 |
| QLCDVSIRVQGREFRAHRAVLAAS [ZBTB22] | 2.58 ± 0.35 | 2.77 ± 0.3 |
| AKQKLDFFIRTSDSFDKFDFCEPS [PCMTD2] | 2.87 ± 0.26 | 3.02 ± 0.47 |
| GAIFCPPCYDVRYAPSCAKCKKKI [PDLIM7] | 3.16 ± 0.24 | 3.45 ± 0.34 |
| LNRSESDIRYLLGYVSQQGGQRST [FEM1B] | 3.73 ± 0.19 | 3.59 ± 0.33 |
| VISPVIQLQPTFTPMRVALAGTFH [NSDHL] | 2.42 ± 0.54 | 2.1 ± 0.11 |
| APPPADSAPQQNGQPLRPLVPDAS [PDLIM7] | 5.27 ± 0.12 | 5.37 ± 0.13 |
| SGGRGPQGDKAIREQGPREQEPEL [PBXIP1] | 5.44 ± 0.19 | 5.5 ± 0.25 |
| PWVYILLRKAVLKNLYKLASQCCG [PTGFR] | 2.09 ± 0.26 | 2.22 ± 0.45 |
| EEREEGPPRIPQADQWKSSNKSLV [RHOBTB1] | 4.99 ± 0.22 | 5.08 ± 0.29 |
| ITVTQSHLVIQNLFEGMIWFLVPI [CDS1] | 3.25 ± 0.45 | 3.24 ± 0.34 |
| PPLPPPDDPATLGPHLGLRGVPQS [DYRK1B] | 4.9 ± 0.23 | 4.91 ± 0.14 |
| KMEIYQKENKDVIQKNKLKLTREQ [MNAT1] | 3.89 ± 0.41 | 4.16 ± 0.34 |
| EMRFAKMPDEPVEAPALPAPAAPM [BRD3] | 4.66 ± 0.078 | 4.8 ± 0.24 |
| VVSSEGRQSRRQSVSRFFADSGAD [FBF1] | 4.25 ± 0.11 | 4.44 ± 0.31 |
| VVHVSFPEVTSALLESLNQQRLQG [ZBTB22] | 2.27 ± 0.28 | 2.41 ± 0.21 |
